Data: patent US20070243589A1 (Pfizer, published 2007)
Substitutions are numbered along the chain they refer to.

T1: human IL-22 (human, UniProt Q9GZX6 34-179)
T1 sequence: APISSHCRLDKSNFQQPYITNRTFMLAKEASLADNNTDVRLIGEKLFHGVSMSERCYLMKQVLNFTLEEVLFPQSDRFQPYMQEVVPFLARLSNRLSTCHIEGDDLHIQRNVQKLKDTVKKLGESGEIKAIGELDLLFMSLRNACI

T2: murine IL-22 (murine, UniProt Q9JJY9 34-179)
T2 construct: also called mouse IL-22
T2 sequence: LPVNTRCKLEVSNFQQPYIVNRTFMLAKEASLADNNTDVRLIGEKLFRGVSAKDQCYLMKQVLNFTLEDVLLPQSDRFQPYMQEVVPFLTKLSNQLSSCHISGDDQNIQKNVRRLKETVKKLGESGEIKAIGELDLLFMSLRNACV

T3: IL-26 (human, UniProt Q9NPH9)
T3 construct: coated on the ELISA plate at 1 µg/ml; also called human IL-26
T3 sequence (cytokine, looked up): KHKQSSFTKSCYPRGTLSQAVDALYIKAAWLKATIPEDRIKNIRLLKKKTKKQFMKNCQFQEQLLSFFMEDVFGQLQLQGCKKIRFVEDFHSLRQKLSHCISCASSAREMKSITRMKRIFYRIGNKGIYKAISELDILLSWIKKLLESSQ

B1: 097D09 IgG (non-germlined) (antibody, V domains shown)
VH: EVQLVESGGGLVTPGGSLRLSCAASGFTFSDYYMSWVRQAPGRGLEWVSAISGSGGSTYYADSVKGRITISRDNAKNSLYLQMSSLRSEDTAVYYCARGLWVWDPLDYWGRGTLVTVSS
VL: DIQMTQSPSTLSASIGDRVTITCRASEGIYHWLAWYQQKPGKAPKLLIYKASSLASGAPSRFSGSGFGTDFTLTISSLQPDDFATYYCQQYSEFAWTFGGGTKLEIKR
notes: IgG
B2: 355B06 germlined IgG (antibody, V domains shown)
VH: QVQLVQSGAEVKKPGASVKVSCKASGYTFTDYYMHWVRQAPGQGLEWVGWINPYTGSAFYAQKFRGRVTMTRDTSISTAYMELSRLRSDDTAVYYCAREPEKFGESSGQLWGRGTLVTVSS
VL: QAVLTQPPSVSGAPGQRVTISCTGSSSNIGAGYGVHWYQQLPGTAPKLLIYGDSNRPSGVPDRFSGSKSGTSASLAITGLQAEDEADYYCQSYDSGLSGYVFGGGTQLTVLG
B3: 355E04 germlined IgG (antibody, V domains shown)
VH: B2 VH with D31H, S57G, R65Q, G104D, E105S, S106P, S107N, G108A, Q109E, L110I
VL: B2 VL with D53N, G96S
B4: 368D04 IgG (non-germlined) (antibody, V domains shown)
VH: EVQLVESGGGVVRPGGSLRLSCAASGFTFDDYGMNWVRQAPGKGLEWVSGVNWNGGTRDYAASVKGRFTISRDNAKNSLYLQMNSLRAEDTALYYCARGWYSGAAWNMGYWGRGTLVTVSS
VL: QAVLTQPSSVSGSPGQSITISCTGASGDVGAYNFVSWYQQHPGKTPKLIIYDVNKRPSGVSNRFSGSKSGNTASLTISGLQAEDESDYYCASLVSDFSVVFGGGTKVTVLG

Biological target: T1, human IL-22
Test: cell-based or functional assay

Row | IC50 of IgG in BaF3-IL-22 proliferation assay | Binder
1 | 0.197 nM | B1
2 | 0.092 nM | B2
3 | 0.1 nM | B3
4 | 0.127 nM | B4

Biological target: T1, human IL-22
Test: cell-based or functional assay
Remark: another data set of the same source

Row | IC50 (pM) of germlined IgG in BaF3-IL-22R proliferation assay | Binder
5 | 92 pM | B2
6 | 100 pM | B3

Biological target: T4, BSA (bovine, UniProt P02769)
T4 construct: background wells labelled BSA; also called bovine serum albumin
Test: ELISA: wells labelled BSA, IgG at 1 µg/ml, HRP anti-human IgG, A450
Method: (§1) Cross species reactivity of germlined and non-germlined optimized antibodies were determined as follows: ELISA plates (Costar, Cat. #3590) were coated overnight with 1 μg/ml of rat, mouse, or human IL-22 or human IL-26 in PBS buffer. Plates were washed with PBST buffer (0.05% Tween20 in PBS) 3 times, then blocked with 1% BSA (Sigma A8918)/PBST for 1 hr at RT. Antibodies were added at 1 μg/ml, incubated 1 hr at 25° C. […] The plates were incubated for 1 hour at 25° C., then washed with PBST, and developed with TMB (KPL, Cat. #50-76-04). Reaction was stopped with 0.18 M H₂S0₄. Plates were read at OD 450 nm.

T4 sequence (P02769 25-607 limits assumed): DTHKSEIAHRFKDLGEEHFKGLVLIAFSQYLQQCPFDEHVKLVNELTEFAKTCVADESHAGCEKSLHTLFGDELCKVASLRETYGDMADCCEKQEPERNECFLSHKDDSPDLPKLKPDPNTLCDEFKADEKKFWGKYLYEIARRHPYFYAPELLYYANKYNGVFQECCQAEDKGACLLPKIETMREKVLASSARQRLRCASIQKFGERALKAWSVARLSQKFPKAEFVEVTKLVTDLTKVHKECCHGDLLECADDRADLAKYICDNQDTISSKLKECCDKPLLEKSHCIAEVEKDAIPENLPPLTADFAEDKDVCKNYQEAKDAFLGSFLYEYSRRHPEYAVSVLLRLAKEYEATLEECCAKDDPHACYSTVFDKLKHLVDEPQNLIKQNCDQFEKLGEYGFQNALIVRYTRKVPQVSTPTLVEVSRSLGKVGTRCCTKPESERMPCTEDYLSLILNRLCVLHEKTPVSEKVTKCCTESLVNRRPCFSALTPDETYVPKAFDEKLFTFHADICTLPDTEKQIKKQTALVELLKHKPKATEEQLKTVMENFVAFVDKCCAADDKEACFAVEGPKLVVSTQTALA

Row | Binder | binding result
7 | B1 | no binding (tested: 1 µg/ml (single concentration))
8 | B2 | no binding (tested: 1 µg/ml (single concentration))
9 | B3 | no binding (tested: 1 µg/ml (single concentration))
10 | B4 | no binding (tested: 1 µg/ml (single concentration))

Biological target: T2, murine IL-22
Test: ELISA: plate coated with 1 µg/ml antigen, IgG at 1 µg/ml, HRP anti-human IgG, A450
Method: as §1

Row | binding result | Binder
11 | binds | B2
12 | binds | B3
13 | binds | B4

Row | Binder | binding result
14 | B1 | no binding (tested: 1 µg/ml (single concentration))

Biological target: T3, IL-26
Test: ELISA: plate coated with 1 µg/ml human IL-26, IgG at 1 µg/ml, HRP anti-human IgG, A450
Method: as §1

Row | Binder | binding result
15 | B1 | no binding (tested: 1 µg/ml (single concentration))
16 | B2 | no binding (tested: 1 µg/ml (single concentration))
17 | B3 | no binding (tested: 1 µg/ml (single concentration))
18 | B4 | no binding (tested: 1 µg/ml (single concentration))
